Experimental findings from patent publication US20060073148A1 are described below.

Test [1] has as its target cynomolgus monkey IL-13 (NHP IL-13), recombinant (cynomolgus monkey). Kind of test: cell-based or functional assay.
Test [2] concerns the target native human IL-13 (crude preparation from activated human cord blood Th2 cells) (human) (UniProt P35225). Nature of the test: cell-based or functional assay.

Sequence of native human IL-13 (crude preparation from activated human cord blood Th2 cells) (human) (P35225 other isoform, or with tags, fused parts or gaps, form in doubt): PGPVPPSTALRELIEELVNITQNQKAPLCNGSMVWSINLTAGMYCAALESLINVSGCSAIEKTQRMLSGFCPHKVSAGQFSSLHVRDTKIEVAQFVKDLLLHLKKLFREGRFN
Sequence of cynomolgus monkey IL-13 (NHP IL-13), recombinant (cynomolgus monkey) (Q5I6E4 other isoform, or with tags, fused parts or gaps): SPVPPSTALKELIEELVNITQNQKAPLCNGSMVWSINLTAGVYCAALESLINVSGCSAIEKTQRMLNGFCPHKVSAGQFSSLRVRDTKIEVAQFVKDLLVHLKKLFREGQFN

B1: antibody with the murine heavy chain of MJ2-7 and a humanized light chain (antibody, part only; not given: humanized light chain, V domains shown, part only)
VH: EVQLQQSGAELVKPGASVKLSCTGSGFNIKDTYIHWVKQRPEQGLEWIGRIDPANDNIKYDPKFQGKATITADTSSNTAYLQLNSLTSEDTAVYYCARSEENWYDFFDYWGQGTTLTVSS
Regarding B1, the IC50, CD23 expression assay in test [1] worked out at 0.308 nM. For the same molecule, the IC50, STAT6 phosphorylation assay in test [2] came out at 0.554 nM.
